The results in this text go back to article PMC3805332 (ACS Chemical Biology, 2013).

The target in data set [1] is T1, M. smegmatis TreS (recombinant) (M. smegmatis, UniProt A0R6E0 1-593).
T1 sequence (looked up): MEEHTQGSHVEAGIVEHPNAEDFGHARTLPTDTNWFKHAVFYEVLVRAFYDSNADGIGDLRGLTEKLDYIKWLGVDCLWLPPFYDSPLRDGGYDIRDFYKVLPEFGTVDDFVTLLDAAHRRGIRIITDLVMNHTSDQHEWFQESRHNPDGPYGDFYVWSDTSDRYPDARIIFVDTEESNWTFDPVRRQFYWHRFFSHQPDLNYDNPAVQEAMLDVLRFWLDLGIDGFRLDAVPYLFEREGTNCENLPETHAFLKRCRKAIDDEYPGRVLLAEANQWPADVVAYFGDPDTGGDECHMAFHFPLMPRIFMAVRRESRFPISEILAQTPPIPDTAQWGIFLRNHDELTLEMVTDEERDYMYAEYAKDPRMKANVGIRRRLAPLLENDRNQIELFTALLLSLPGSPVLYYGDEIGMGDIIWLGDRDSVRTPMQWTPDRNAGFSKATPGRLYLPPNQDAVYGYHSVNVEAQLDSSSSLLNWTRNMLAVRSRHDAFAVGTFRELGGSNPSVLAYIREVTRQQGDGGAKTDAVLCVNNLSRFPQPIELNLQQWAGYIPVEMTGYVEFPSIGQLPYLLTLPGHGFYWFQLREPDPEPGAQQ
Description: SEC; M. smegmatis Pep2-K145A with M. smegmatis TreS (Figure S6B); conditions not given. As to conditions: both partners purified. In general terms: Size exclusion chromatography separates by hydrodynamic size, large species first.

Data set [2] has as its target M. tuberculosis maltokinase Pep2 (M. tuberculosis H37Rv, UniProt O07177 1-455). Kind of data set: SEC. Particulars: both partners purified.
Data set [3] concerns the molecule itself. Description: AUC.

Values joined by “and” are separate entries in the source; they are usually repeats but may differ in a detail not shown here. Identical values can stand only once.

B1: M. smegmatis Pep2-K145A (enzyme)
chain: not shown
Consider B1, for which the binding result in data set [1] is on record as “binds”.

B2: M. tuberculosis trehalose synthase TreS (enzyme)
chain: MNEAEHSVEHPPVQGSHVEGGVVEHPDAKDFGSAAALPADPTWFKHAVFYEVLVRAFFDASADGSGDLRGLIDRLDYLQWLGIDCIWLPPFYDSPLRDGGYDIRDFYKVLPEFGTVDDFVALVDAAHRRGIRIITDLVMNHTSESHPWFQESRRDPDGPYGDYYVWSDTSERYTDARIIFVDTEESNWSFDPVRRQFYWHRFFSHQPDLNYDNPAVQEAMIDVIRFWLGLGIDGFRLDAVPYLFEREGTNCENLPETHAFLKRVRKVVDDEFPGRVLLAEANQWPGDVVEYFGDPNTGGDECHMAFHFPLMPRIFMAVRRESRFPISEIIAQTPPIPDMAQWGIFLRNHDELTLEMVTDEERDYMYAEYAKDPRMKANVGIRRRLAPLLDNDRNQIELFTALLLSLPGSPVLYYGDEIGMGDVIWLGDRDGVRIPMQWTPDRNAGFSTANPGRLYLPPSQDPVYGYQAVNVEAQRDTSTSLLNFTRTMLAVRRRHPAFAVGAFQELGGSNPSVLAYVRQVAGDDGDTVLCVNNLSRFPQPIELDLQQWTNYTPVELTGHVEFPRIGQVPYLLTLPGHGFYWFQLTTHEVGAPPTCGGERRL
As for B2, the binding result in data set [2] is “binds”. Moreover, the “stoichiometry N” value in data set [3] was 4 and 8.

Usually stoichiometry N stands for a count of units in the complex or per binding partner.
